Data: patent publication US20160271292A1 (GEORGIA TECH RESEARCH, published 2016)

Key:
[1] = target: fibrin (polymerized from purified human fibrinogen with thrombin) (human) (UniProt P02671); experiment: SPR, sdFv flowed over thin fibrin layer, Langmuir 1:1 fit
BSA = target: T1, BSA (UniProt P02769 25-607); experiment: SPR, scFv/sdFv flowed over a BSA surface
T1 construct: Control surface in SPR; also called BSA surface
T1 sequence (P02769 25-607 limits assumed): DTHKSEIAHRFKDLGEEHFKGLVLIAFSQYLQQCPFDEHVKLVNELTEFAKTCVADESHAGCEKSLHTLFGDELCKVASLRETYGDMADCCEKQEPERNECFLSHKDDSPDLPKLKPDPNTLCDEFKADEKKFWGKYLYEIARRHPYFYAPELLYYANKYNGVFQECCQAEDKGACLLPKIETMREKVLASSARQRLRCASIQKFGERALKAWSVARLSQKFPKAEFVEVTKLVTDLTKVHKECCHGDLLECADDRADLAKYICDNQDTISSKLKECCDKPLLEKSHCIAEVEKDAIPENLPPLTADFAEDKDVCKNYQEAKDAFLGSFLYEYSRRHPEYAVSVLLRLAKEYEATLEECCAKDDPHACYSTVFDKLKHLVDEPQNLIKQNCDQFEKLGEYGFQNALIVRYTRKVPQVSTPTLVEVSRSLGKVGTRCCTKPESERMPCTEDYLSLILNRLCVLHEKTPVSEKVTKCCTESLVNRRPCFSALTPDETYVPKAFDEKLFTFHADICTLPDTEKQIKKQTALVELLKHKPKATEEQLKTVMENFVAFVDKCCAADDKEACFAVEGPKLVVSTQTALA

B1: H6 fibrin-specific single domain variable fragment antibody (sdFv) (VHH)
VHH: QVQLLESGGGLVQPGGSLRLSCAASGDRFTHNDMGWVRQAPGKGLEWVSTIPTTDGSTYYADSVKGRFTISRDNSKSTLYLQMNSLRAEDTAVYYCATGYMWKAPAYVKYWGQGTLVTVSS
notes: Human-derived single domain antibody with only the VH of human IgG, from a phagemid library; Produced as soluble sdFv in E. coli HB2151 and purified on protein A; also called clone H6; nanobody
**Q.** With B1 as the binder, how does the Kd [1] read?
**A.** 199 nM

**Q.** Does B1 bind (BSA)?
**A.** no binding (tested: not printed)
